Test results reported in patent publication US20250376533A1 (FUTUREGEN BIOPHARMACEUTICAL BEIJING, published 2025).

Experiments:
[1] = biological target: T1, human PD-L1 antigen (ACROBiosystems) (human, UniProt Q9NZQ7 19-238); experiment: BLI (Gator), antibody captured on PA probe, human PD-L1 in solution
T1 construct: Bought antigen coated on ELISA plates
Procedure: The interaction between monoclonal antibodies and antigens was detected using Gator, a label-free biomolecular interaction analyzer based on the principle of biolayer interferometry (BLI). The specific method is as follows: monoclonal antibody was diluted to 50 nM and added to a probe plate using a PA probe, allowing the monoclonal antibody to be captured by the PA probe. Human PD-L1, an antigen serially diluted starting from 200 nM, was then added for interaction with the […] captured by the PA probe. The interaction was analyzed by detecting the signal change of the reflected interference spectrum on the surface of the probe, and the binding kinetic constants of the antibody were finally calculated.

[2] = biological target: T1, human PD-L1 antigen (ACROBiosystems); experiment: ELISA, coated antigen
Procedure: (§1) The binding ability of monoclonal antibody to human PD-L1, as well as the species specificity, was detected using an enzyme-linked immunosorbent assay (ELISA). The specific method is as follows: human PD-L1, cynomolgus PD-L1, rat PD-L1, and mouse PD-L1 antigens (all purchased from ACROBiosystems) were coated with 1 μg/mL carbonate buffer (pH=9.6) in an ELISA plate at 100 μL per well, followed by incubation at 4° C. overnight. The wells were washed 5 times with PBST. 300 μL/well of PBST containing 1% BSA was added to block the wells, and the plate was incubated at room temperature for 1 hour. The wells were washed 5 times with PBST. […] The wells were washed 5 times with PBST. […] The wells were washed 5 times with PBST. Colorimetric substrate TMB was added at 100 μL per well and allowed to develop color at room temperature for 10 minutes, followed by the addition of 1 M sulfuric acid to terminate the reaction. The OD_{450 nm} was read on a microplate reader to analyze the results, and the EC₅₀ was calculated using a 4-parameter fit binding curve.
(§2) These monoclonal antibodies are not able to bind to rat PD-L1 or mouse PD-L1.

[3] = biological target: T2, cynomolgus PD-L1 antigen (ACROBiosystems) (cynomolgus, UniProt G7PSE7 19-238); experiment: ELISA, coated antigen
T2 construct: Bought antigen coated on ELISA plates; construct not described
T2 sequence (G7PSE7 entry or part of it): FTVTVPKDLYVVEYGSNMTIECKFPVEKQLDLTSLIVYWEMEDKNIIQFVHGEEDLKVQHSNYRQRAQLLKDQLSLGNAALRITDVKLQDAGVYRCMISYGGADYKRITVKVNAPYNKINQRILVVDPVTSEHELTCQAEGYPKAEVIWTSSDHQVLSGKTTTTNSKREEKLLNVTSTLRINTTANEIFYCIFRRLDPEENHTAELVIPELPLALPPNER
Procedure: as §1, §2

[4] = biological target: T3, mouse PD-L1 antigen (ACROBiosystems) (mouse, UniProt Q9EP73 19-239); experiment: ELISA, coated antigen
T3 construct: Bought antigen coated on ELISA plates; construct not described
T3 sequence (Q9EP73 19-239 limits assumed): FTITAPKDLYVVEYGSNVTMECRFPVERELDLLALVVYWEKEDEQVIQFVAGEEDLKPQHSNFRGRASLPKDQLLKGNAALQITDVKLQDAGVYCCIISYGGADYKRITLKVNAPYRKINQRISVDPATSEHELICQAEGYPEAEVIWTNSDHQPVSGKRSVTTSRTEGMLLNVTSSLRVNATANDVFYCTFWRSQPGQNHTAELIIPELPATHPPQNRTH
Procedure: as §1, §2

[5] = biological target: T4, rat PD-L1 antigen (ACROBiosystems) (rat, UniProt D4AE25 19-239); experiment: ELISA, coated antigen
T4 construct: Bought antigen coated on ELISA plates; construct not described
T4 sequence (D4AE25 entry or part of it limits assumed): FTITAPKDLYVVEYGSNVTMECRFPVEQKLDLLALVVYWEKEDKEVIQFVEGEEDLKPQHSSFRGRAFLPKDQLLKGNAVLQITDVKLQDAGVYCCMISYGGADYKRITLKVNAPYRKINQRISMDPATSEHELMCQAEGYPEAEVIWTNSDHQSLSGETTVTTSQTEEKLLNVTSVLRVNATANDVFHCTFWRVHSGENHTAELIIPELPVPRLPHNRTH
Procedure: as §1, §2

T1 sequence (Q9NZQ7 19-238 limits assumed): as the sequence (G7PSE7 entry or part of it) above, with T33A, S34A, N62S, Q68R, R82Q, L173F, A185T, I192T, L215H counted along it

Binder	Kd [1] [nM]	koff [1] [s⁻¹]	kon [1] [M⁻¹ s⁻¹]	EC50 [2] [nM]	EC50 [3] [nM]	binding result [4]	binding result [5]
anti-PD-L1 monoclonal antibody 1102 (antibody, human IgG1, V domains shown) VH: EVQLVESGGGLVQPGGSLRLSCAASGFTFDYYTQCWFRQAPGKEREWVSCISSSEGSTYYADSVKGRFTISRDNAKNTVYLQMNSLRAEDTAVYYCAARKGGPLTIENFFDYWGQGTQVTVSS	4.41	0.00451	1.02e+06	0.013	0.013	no binding	no binding
anti-PD-L1 monoclonal antibody 1031 (antibody, human IgG1, V domains shown) VH: EVQLVESGGGLVQPGGSLRLSCAASGFTFEYYTKCWFRQAPGKEREWVSCISTSEGSTYYADSVKGRFTISRDNAKNTVYLQMNSLRAEDTAVYYCAARKGGPLTIENFFDYWGQGTQVTVSS	8.3	0.00913	1.1e+06	0.02	0.018	no binding	no binding
anti-PD-L1 monoclonal antibody 1541 (antibody, human IgG1, V domains shown) VH: EVQLVESGGGLVQPGGSLRLSCAASGFTFDYYTQCWFRQAPGKEREWVSCISSSEGSTYYADSVKGRFTISRDNSKNTVYLQMNSLKTEDTAVYYCAARKGGPLTIENFFDYWGQGTQVTVSS	4.38	0.00293	670000	0.014	0.018	no binding	no binding
anti-PD-L1 monoclonal antibody 1029 (antibody, human IgG1, V domains shown) VH: EVQLVESGGGLVQPGGSLRLSCAASGFTLDYYSKCWFRQAPGKEREWVSCIGSSDGSTYYADSVKGRFTISRDNAKNTVYLQMNSLRAEDTAVYYCAARNGGPLTIENFFDYWGQGTQVTVSS	4.37	0.00422	967000	0.012	0.013	no binding	no binding
